# Source: US8129345B2, “MUC1-IκB kinase complexes and their activities” (Dana-Farber Cancer Institute, Inc., priority 2006, dated 2012)
# Tests used:
# [1] = target: IKKβ-IKKγ complexes (Homo sapiens, UniProt O14920+Q9Y6K9); assay: In vitro association of IKKβ with GST-IKKγ in absence and presence of MUC1-CD proteins; assay type: binding; settings: purified IKKβ and GST-IKKγ, with or without added MUC1 protein
# Description: FIG. 7C is a series of photographs of immunoblots. GST- or GST-IKKγ bound to glutathione beads was incubated with IKKβ in the absence and presence of MUC1-CD protein. The precipitates were immunoblotted (IB) with anti-IKKβ (upper panel). Input amounts of the various proteins were assessed by immunoblotting with the indicated antibodies (lower 3 panels). The molecular weights of proteins (as indicated on the left of the photographs) are expressed as kilodaltons (kDa).
# FIG. 12 is a series of photographs of immunoblots. GST, and GST-IKKγ fusion proteins bound to glutathione beads were incubated with MUC1-CD, MUC1-CD(mSRM), or IKKβ proteins as indicated. The GST-pull down precipitates were immunoblotted (IB) with antibodies specific for IKKγ (top panel), IKKβ (middle panel), or MUC1 (bottom panel) as indicated. The molecular weights of proteins (as indicated on the left of the photographs) are expressed as kilodaltons (kDa).
# In vitro binding assays. Purified GST-MUC1-CD (glutathione s-transferase fused to the MUC1-CD polypeptide) was cleaved with thrombin to remove the GST moiety. […] Adsorbates to glutathione-conjugated beads were analyzed by immunoblotting.
# [2] = target: IKKγ (Homo sapiens, UniProt Q9Y6K9); assay: In vitro GST pull-down binding to IKKγ
# Description: FIG. 5B is a pair of photographs of immunoblots showing an interaction between MUC1-CD and IKKγ. GST- and GST-IKKγ bound to glutathione beads were incubated with purified MUC1-CD. The precipitates were immunoblotted (IB) with anti-MUC1-C antibodies. Commassie blue staining of the gel was performed to confirm that equal amounts of GST- and GST-IKKγ were used in the experiment. The molecular weights of proteins (as indicated on the left of the photographs) are expressed as kilodaltons (kDa).
# FIG. 5C is a pair of photographs of immunoblots. GST- and the indicated GST-MUC1-CD fusion proteins or fragments bound to glutathione beads were incubated with purified IKKγ. The precipitates were immunoblotted (IB) with anti-IKKγ antibody. Commassie blue staining of the gel was performed to confirm that equal amounts of GST- and GST-MUC1 proteins were used in the experiment. The molecular weights of proteins (as indicated on the left of the photographs) are expressed as kilodaltons (kDa).
# FIG. 5D is a pair of photographs of immunoblots. GST and the indicated GST-IKKγ fusion proteins bound to glutathione beads were incubated with MUC1-CD. The precipitates were immunoblotted (IB) with anti-MUC1-C antibody. Commassie blue staining of the gel was performed to confirm that equal amounts of GST- and GST-IKKγ proteins were used in the experiment. The molecular weights of proteins (as indicated on the left of the photographs) are expressed as kilodaltons (kDa).
# FIG. 11B is a pair of photographs of an immunoblot and Coomassie blue stained gel. GST and the indicated GST-MUC1-CD fusion proteins (MUC1-CD and MUC1-CD(mSRM)) bound to glutathione beads were incubated with IKKγ. The precipitates were immunoblotted (IB) with an anti-IKKγ antibody. Commassie blue staining of the gel was performed to confirm that equal amounts of GST- and GST-MUC1-CD proteins were used in the experiment. The molecular weights of proteins (as indicated on the left of the photographs) are expressed as kilodaltons (kDa).
# In vitro binding assays. Purified GST-MUC1-CD (glutathione s-transferase fused to the MUC1-CD polypeptide) was cleaved with thrombin to remove the GST moiety. GST, GST-IKKβ (DiDonato et al. (1997) Nature 388:548-554), GST-IKKβ (1-458), GST-IKKβ (458-756), GST-IKKγ (Prajapati et al. (2002) J. Biol. Chem. 277:24331-24339), GST-IKKγ (1-196) or GST-IKKγ (197-419) were then incubated with the MUC1-CD for 1 hour at 25° C. In other experiments, GST, GST-MUC1-CD, GST-MUC1-CD(1-45) or GST-MUC1-CD(46-72) were incubated with purified IKKβ or IKKγ. Adsorbates to glutathione-conjugated beads were analyzed by immunoblotting.
# Chain of IKKβ-IKKγ complexes (O14920 whole entry): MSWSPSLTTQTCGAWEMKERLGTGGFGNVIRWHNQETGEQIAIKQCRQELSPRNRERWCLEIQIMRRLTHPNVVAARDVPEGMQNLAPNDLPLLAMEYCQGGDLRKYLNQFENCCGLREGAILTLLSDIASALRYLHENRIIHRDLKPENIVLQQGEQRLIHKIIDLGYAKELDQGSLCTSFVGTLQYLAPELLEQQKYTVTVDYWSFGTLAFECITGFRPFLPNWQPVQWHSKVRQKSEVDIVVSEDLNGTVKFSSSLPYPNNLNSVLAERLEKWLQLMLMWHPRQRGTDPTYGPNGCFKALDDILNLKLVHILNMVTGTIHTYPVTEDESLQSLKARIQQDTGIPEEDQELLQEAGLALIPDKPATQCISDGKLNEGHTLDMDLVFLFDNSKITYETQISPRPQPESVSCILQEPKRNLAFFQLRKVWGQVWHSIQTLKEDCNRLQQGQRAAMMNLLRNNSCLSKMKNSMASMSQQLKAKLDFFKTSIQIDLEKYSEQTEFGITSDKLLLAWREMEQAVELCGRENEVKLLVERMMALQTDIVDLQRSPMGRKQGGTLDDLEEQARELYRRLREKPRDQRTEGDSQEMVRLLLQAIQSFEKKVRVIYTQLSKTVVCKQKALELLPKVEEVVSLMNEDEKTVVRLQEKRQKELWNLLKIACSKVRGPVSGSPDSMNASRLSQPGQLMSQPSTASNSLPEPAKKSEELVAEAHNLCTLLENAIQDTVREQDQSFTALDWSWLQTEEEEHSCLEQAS
# Chain of IKKβ-IKKγ complexes (Q9Y6K9 whole entry): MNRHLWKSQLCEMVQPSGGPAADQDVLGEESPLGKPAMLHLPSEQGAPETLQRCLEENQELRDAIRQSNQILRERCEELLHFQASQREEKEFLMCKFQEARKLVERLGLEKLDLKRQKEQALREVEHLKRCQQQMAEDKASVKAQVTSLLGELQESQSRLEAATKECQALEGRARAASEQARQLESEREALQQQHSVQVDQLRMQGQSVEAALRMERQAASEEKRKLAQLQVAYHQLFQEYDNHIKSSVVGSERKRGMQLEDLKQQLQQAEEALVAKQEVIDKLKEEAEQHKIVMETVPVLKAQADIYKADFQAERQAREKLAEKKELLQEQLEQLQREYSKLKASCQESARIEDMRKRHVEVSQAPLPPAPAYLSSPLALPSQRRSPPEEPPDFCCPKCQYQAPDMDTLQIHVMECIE
substance,measurement,setting,value
"MUC1-CD: 72 amino acid cytoplasmic domain of human MUC1, SEQ ID NO:2",interaction between IKKβ and IKKγ,[1],increases the interaction between IKKβ and IKKγ
same,binding to IKKγ,"[2]; GST pull-down with purified proteins, immunoblot",binds to purified IKKγ
same,region of IKKγ bound by MUC1-CD,[2]; GST-IKKγ (1-196) and GST-IKKγ (197-419) incubated with MUC1-CD,binds to the C-terminal region (197-419) of IKKγ
